These results are taken from PMC5650471.

For this assay, the target named is wild-type human ADORA2A adenosine A2A receptor (construct terminated at residue 316, N154Q, C-terminal 8x His and Protein C tags) (human) (UniProt P29274).
UniProt P29274, sequence (P29274 1-316 N154Q): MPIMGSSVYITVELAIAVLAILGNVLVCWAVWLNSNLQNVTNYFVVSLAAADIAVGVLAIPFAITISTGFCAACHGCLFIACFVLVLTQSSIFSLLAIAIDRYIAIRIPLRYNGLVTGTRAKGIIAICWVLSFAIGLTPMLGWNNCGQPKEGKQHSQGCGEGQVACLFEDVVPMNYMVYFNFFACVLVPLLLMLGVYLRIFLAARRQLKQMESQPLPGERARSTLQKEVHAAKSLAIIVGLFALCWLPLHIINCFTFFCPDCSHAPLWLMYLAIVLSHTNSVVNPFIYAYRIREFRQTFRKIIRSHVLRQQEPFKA

Gs heterotrimer (complex) had a [35S]GTPγS binding to perdeuterated purified A2AR reconstituted with purified Gs heterotrimer in phospholipid vesicles; reduction of basal activity by inverse agonist ZM241385 of 50% and a [35S]GTPγS binding to perdeuterated purified A2AR reconstituted with purified Gs heterotrimer in phospholipid vesicles; stimulation by saturating full agonist NECA of 8 fold.
